The values that follow come from patent publication US20120316118A1 (OSSTEMIMPLANT, published 2012).

In test [1] the target is T1, BMPR-IA (BMP receptor type IA) (UniProt P36894 24-152, limits assumed).
T1 construct: Soluble receptor added to the PEP7-coated plate; also called BMPR-1A; BMP-specific receptor
The test can be described thus: ELISA: peptide coated on plate, BMPR-1A added, detected with anti-receptor antibody and HRP secondary, ABTS, absorbance at 595 nm. How it is done: (§1) PEP7 ([…]) was added to an ELISA plate and incubated at 4° C. for 12 hours. After PEP7 was coated on the plate, BMPR-1A or BMPR-II ([…]) was added thereto and reacted at room temperature for 2 hours, to obtain a PEP7-BMP receptor complex. A primary antibody specific for a BMP receptor (0.5 mg BMPR-1A, BMPR-11) was added to the complex and reacted at room temperature for 1 hour. A secondary antibody (BMPR-1A- or BMPRII-Fc Ab-HRP) was then added to the resulting mixture and reacted at room temperature for 1 hour.
(In general: ELISA stands for enzyme-linked immunosorbent assay.)

In test [2] the target is T2, BMPR-II (BMP receptor type II) (UniProt Q13873 27-151, limits assumed).
T2 construct: Soluble receptor added to the PEP7-coated plate; also called BMPR-11; BMP-II
T2 sequence (looked up): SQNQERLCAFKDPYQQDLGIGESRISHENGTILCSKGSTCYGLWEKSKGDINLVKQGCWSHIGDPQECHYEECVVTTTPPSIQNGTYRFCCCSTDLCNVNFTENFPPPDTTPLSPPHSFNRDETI
The test can be described thus: ELISA: peptide coated on plate, BMPR-II added, detected with anti-receptor antibody and HRP secondary, ABTS, absorbance at 595 nm. The procedure: as §1

T1 sequence (P36894 24-152 limits assumed): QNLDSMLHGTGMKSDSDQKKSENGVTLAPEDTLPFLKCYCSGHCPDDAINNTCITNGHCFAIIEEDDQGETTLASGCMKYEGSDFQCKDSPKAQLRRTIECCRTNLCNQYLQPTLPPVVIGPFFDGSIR

B1: PEP7 oligopeptide (SEQ ID NO:1) (peptide)
peptide: KIPKPSSVPTELSAISMLYL
notes: Synthetic peptide made by the Fmoc/tBu method, coated on the ELISA plate
For B1, the “binding affinity relative to PEP 111 (ELISA absorbance)” value in test [1] and in test [2] was approximately 23 % higher than PEP 111 throughout.
